Molecular target: T1, inositol monophosphatase (IMPase) (UniProt P29218)
T1 sequence: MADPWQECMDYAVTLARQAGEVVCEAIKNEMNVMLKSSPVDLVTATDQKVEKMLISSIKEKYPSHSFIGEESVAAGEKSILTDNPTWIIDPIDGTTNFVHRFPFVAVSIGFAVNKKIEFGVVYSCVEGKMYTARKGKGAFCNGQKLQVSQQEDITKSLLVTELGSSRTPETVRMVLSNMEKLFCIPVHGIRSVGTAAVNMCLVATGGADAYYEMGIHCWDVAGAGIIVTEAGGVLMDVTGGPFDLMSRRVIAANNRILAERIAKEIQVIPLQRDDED

B1: recombinant calbindin (natural protein)
chain: MAESHLQSSLITASQFFEIWLHFDADGSGYLEGKELQNLIQELQQARKKAGLELSPEMKTFVDQYGQRDDGKIGIVELAHVLPTEENFLLLFRCQQLKSCEEFMKTWRKYDTDHSGFIETEELKNFLKDLLEKANKTVDDTKLAEYTDLMLKLFDSNNDGKLELTEMARLLPVQENFLLKFQGIKMCGKEFNKAFELYDQDGNGYIDENELDALLKDLCEKNKQDLDINNITTYKKNIMALSDGGKLYRTDLALILCAGDN
Question: Which IMPase activity in brain homogenates (Pi release from inositol-1-phosphate) with 20 uM recombinant calbindin does the source give for B1 here?
Answer: Its IMPase activity in brain homogenates (Pi release from inositol-1-phosphate) with 20 uM recombinant calbindin is 1.66 fold.

— paper PMC2366074
